Measurements published in patent US20250242020A1 (JUNO THERAPEUTICS, published 2025).

Experiments:
[1] = biological target: recombinant human ROR1 extracellular domain with a C-terminal 6xHis tag (human) (UniProt Q01973); experiment: SPR (Biacore), scFv-mFc captured on an anti-mouse IgG chip, ROR1 ECD 6xHis injected at 183, 61.0, 20.33, 6.78 and 2.26 nM, multi-cycle kinetics, 1:1 Binding model, 25 °C
[2] = biological target: recombinant human ROR1 extracellular domain with a C-terminal 6xHis tag (human) (UniProt Q01973); experiment: SPR (Biacore T200): scFv-mFc captured on anti-mouse IgG chip, ROR1 ECD 6xHis injected, multi-cycle kinetics, 1:1 model
[3] = biological target: T1, human ROR2 expressed on cells of the plasma membrane protein array (human, UniProt Q01974 34-943); experiment: plasma membrane protein array: immunohistochemistry with scFv-Fc on cells overexpressing individual human membrane proteins, with confirmation screening
T1 construct: whole, on cells; also called receptor tyrosine kinase-like orphan receptor 2
T1 sequence (Q01974 34-943): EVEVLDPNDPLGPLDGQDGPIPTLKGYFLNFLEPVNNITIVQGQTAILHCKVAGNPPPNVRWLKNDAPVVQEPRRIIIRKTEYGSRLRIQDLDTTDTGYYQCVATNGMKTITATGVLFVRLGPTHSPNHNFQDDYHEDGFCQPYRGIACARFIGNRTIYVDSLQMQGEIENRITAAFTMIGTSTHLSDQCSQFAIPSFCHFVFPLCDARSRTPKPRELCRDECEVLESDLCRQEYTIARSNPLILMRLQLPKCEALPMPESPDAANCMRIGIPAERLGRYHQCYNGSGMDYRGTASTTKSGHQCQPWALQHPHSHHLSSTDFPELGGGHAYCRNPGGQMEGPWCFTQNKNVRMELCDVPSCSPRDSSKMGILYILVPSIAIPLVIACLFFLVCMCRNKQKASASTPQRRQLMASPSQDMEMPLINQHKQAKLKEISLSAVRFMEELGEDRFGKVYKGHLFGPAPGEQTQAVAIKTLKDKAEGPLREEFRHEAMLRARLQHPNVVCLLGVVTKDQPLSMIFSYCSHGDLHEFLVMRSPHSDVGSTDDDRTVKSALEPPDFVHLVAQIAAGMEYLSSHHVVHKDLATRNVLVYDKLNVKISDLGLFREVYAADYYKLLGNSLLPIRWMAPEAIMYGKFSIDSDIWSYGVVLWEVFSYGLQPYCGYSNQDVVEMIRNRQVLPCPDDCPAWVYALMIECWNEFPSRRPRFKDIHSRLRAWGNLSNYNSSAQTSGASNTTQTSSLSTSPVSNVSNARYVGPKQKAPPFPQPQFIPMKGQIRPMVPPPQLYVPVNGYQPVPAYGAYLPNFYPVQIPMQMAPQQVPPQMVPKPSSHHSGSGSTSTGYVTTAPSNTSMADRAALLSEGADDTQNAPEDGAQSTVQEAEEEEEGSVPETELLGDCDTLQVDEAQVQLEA
Experimental: (§1) Off-target binding was assessed based on a plasma membrane protein array. This chip-based platform contains over 4400 groups of cells genetically engineered to overexpress individual human extracellular membrane proteins that together represent over 75% of the human extracellular proteome. The panel also includes over 1000 tethered secreted protein targets. An scFv-Fc (scFv sequence set forth in SEQ ID NO:118) was generated and used for immunohistochemistry (IHC) against the cells in the array. Confirmation screening was performed.

[4] = biological target: T2, human ROR1 expressed on cells (human, UniProt Q01973 30-937); experiment: plasma membrane protein array: immunohistochemistry on cells overexpressing individual human membrane proteins
T2 construct: also called hROR1; K562-ROR1-TetOn
T2 sequence (Q01973 30-937): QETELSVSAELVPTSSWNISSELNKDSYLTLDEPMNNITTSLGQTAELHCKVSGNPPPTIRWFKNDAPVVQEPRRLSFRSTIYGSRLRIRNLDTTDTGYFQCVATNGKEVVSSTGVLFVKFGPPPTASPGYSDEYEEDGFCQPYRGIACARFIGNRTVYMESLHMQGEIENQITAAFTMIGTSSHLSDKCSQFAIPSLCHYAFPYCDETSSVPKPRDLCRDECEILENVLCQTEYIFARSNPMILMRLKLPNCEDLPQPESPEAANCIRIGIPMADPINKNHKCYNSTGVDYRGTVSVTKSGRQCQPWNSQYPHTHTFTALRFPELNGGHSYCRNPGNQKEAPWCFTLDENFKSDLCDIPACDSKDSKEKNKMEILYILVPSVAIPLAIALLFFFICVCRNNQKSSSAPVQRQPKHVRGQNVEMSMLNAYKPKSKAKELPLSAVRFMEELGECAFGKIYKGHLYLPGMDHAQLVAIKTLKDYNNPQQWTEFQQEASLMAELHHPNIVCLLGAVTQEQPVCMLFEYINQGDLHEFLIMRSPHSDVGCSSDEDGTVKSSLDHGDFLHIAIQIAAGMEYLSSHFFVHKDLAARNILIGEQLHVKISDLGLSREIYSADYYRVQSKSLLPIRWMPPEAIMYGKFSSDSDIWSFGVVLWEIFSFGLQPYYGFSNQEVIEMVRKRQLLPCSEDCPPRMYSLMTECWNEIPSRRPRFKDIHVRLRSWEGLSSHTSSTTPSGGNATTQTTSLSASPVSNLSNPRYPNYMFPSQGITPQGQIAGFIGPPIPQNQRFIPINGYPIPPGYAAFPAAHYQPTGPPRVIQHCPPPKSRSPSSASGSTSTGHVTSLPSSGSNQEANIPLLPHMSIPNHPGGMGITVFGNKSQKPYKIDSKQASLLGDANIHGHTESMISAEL
Experimental: as §1

[5] = biological target: recombinant human ROR1 extracellular domain with a C-terminal 6xHis tag (human) (UniProt Q01973); experiment: SPR (Biacore), scFv-mFc captured on an anti-mouse IgG chip, ROR1 ECD 6xHis injected in a concentration series up to 183 nM, multi-cycle kinetics, 1:1 Binding model, 25 °C

recombinant human ROR1 extracellular domain with a C-terminal 6xHis tag (human), sequence (Q01973 other isoform, or with tags, fused parts or gaps): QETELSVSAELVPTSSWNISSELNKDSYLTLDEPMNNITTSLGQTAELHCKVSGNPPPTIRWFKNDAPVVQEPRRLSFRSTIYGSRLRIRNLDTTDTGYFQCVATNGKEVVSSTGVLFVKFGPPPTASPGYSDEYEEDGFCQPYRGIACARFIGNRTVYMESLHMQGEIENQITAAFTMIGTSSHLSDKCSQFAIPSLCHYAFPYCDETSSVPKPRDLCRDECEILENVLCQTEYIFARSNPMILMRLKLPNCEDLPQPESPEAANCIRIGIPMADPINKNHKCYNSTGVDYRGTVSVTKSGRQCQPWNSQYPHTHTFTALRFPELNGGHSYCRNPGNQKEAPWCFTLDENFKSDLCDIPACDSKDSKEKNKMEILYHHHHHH

Kd [1] | koff [1] | kon [1] | Kd [2] | koff [2] | kon [2] | binding result [3] | binding result [4] | Kd [5] | koff [5] | kon [5] | Binder
42 nM | 0.005 s⁻¹ | 119000 M⁻¹ s⁻¹ | 42 nM | 0.005 s⁻¹ | 119000 M⁻¹ s⁻¹ |  |  |  |  |  | anti-ROR1 scFv ROR1-1 fused to murine IgG2a Fc (scFv-mFc) (Fc fusion, part only; not given: murine IgG2a Fc and junction, not shown: another chain or arm of the molecule; a dimerising Fc or GST) scFv: QVQLQESGPGLVKPSETLSLTCTVSGGSISNYYWSWIRQPAGKGLEWIGRIYTSGSTNYNPSLKSRVTMSVDTSKNQFSLKLSSLTAADTAIYYCARYYDILTGFFDYWGQGTLVTVSSGGGGSGGGGSGGGGSVIWMTQSPSLLSASTGDSVTISCRMSQDISSYLAWYQQKPGKAPELLIYAASSLQSGVPSRFSGSGSGTDFTLTISSLQSEDFATYYCQQYDSFPPTFGQGTKVEFKR
 |  |  |  |  |  | no binding | binds |  |  |  | scFv-Fc of the binding domain of anti-ROR1 CAR-F (scFv SEQ ID NO:118), used on the plasma membrane protein array (Fc fusion, also called the scFv; not shown: Fc) QVQLQESGPGLVKPSETLSLTCTVSGGSISNYYWSWIRQPAGKGLEWIGRIYTSGSTNYNPSLKSRVTMSVDTSKNQFSLKLSSLTAADTAIYYCARYYDILTGFFDYWGQGTLVTVSSGGGGSGGGGSGGGGSVIWMTQSPSLLSASTGDSVTISCRMSQDISSYLAWYQQKPGKAPELLIYAASSLQSGVPSRFSGSGSGTDFTLTISSLQSEDFATYYCQQYDSFPPTFGQGTKVEFKR
0.0956 nM | 3.94e-05 s⁻¹ | 412000 M⁻¹ s⁻¹ | 0.0957 nM | 3.94e-05 s⁻¹ | 412000 M⁻¹ s⁻¹ |  |  |  |  |  | anti-ROR1 scFv ROR1-2 fused to murine IgG2a Fc (scFv-mFc) (Fc fusion, part only; not given: murine IgG2a Fc and junction, not shown: another chain or arm of the molecule; a dimerising Fc or GST) scFv: QLQLQESGPGLVKPSETLSLTCTVSGGSINSTTSYWAWIRQPPGKGLEWIGTIFYSGKTYNNPSLKSRVTMSVDTSKNHFSLKVNSVTAADTAVYYCARFDYGFHDAFDIWGQGTMVTVSSGGGGSGGGGSGGGGSEIVMTQSPATLSLSPGERATLSCRASQSITSDYLSWYQQKPGQAPRLLIYGASTRATGIPARFSGSGSGTDFTLTISSLQPEDFVVYYCQQDYNLYTFGQGTKLEIKR
0.924 nM | 1.08e-05 s⁻¹ | 11700 M⁻¹ s⁻¹ | 0.924 nM | 1.08e-05 s⁻¹ | 11700 M⁻¹ s⁻¹ |  |  |  |  |  | anti-ROR1 scFv ROR1-3 fused to murine IgG2a Fc (scFv-mFc) (Fc fusion, part only; not given: murine IgG2a Fc and junction, not shown: another chain or arm of the molecule; a dimerising Fc or GST) scFv: QVQLVQSGAEVKKPGASVKVSCKASGYTFTSYGISWVRQAPGQGLEWMGWISAYNGNTKYAQKLQGRVTMTTDTSTSTAYMELRSLRSDDTAVYYCARDEDILTGYNYYGMDVWGQGTTVTVSSGGGGSGGGGSGGGGSQLVLTQSPSASASLGASVKLTCTLSSGHSSYAIAWHQQQPEKGPRYLMKLNSDGSHSKGDGIPDRFSGSSSGAERYLTISSLQSEDEADYYCQTWGTGIRVFGGGTKLTVLG
13.8 nM | 0.00022 s⁻¹ | 16000 M⁻¹ s⁻¹ | 13.8 nM | 0.00022 s⁻¹ | 16000 M⁻¹ s⁻¹ |  |  |  |  |  | anti-ROR1 scFv ROR1-4 fused to murine IgG2a Fc (scFv-mFc) (Fc fusion, part only; not given: murine IgG2a Fc and junction, not shown: another chain or arm of the molecule; a dimerising Fc or GST) scFv: QVQLLQSGAEVKKPGASVKVSCKASGYTFTSYGISWVRQAPGQGLEWMGWISAYTGNTRYAQKLQGRVTMTTDTSTSTAYMELRSLRSDDTAVYYCAREEGATTDYDYYGMDVWGQGTAVTVSSGGGGSGGGGSGGGGSQLVLTQSPSASASLGASVKLTCTLSSGHSSYAIAWHQQQPEKGPRYLMKLNSDGSHSKGDGIPDRFSGSSSGAERYLTISSLQSEDEADYYCQTWGTGIRVFGGGTKLTVLG
 |  |  | 0.942 nM | 0.000579 s⁻¹ | 614000 M⁻¹ s⁻¹ |  |  | 0.942 nM | 0.000579 s⁻¹ | 614000 M⁻¹ s⁻¹ | reference R12 scFv fused to murine IgG2a Fc (scFv-mFc) (Fc fusion, part only; not given: murine IgG2a Fc and junction, not shown: another chain or arm of the molecule; a dimerising Fc or GST) scFv: QEQLVESGGRLVTPGGSLTLSCKASGFDFSAYYMSWVRQAPGKGLEWIATIYPSSGKTYYATWVNGRFTISSDNAQNTVDLQMNSLTAADRATYFCARDSYADDGALFNIWGPGTLVTISSGGGGSGGGGSGGGGSELVLTQSPSVSAALGSPAKITCTLSSAHKTDTIDWYQQLQGEAPRYLMQVQSDGSYTKRPGVPDRFSGSSSGADRYLIIPSVQADDEADYYCGADYIGGYVFGGGTQLTVTG
